Experimental data taken from patent publication US7265091B2, “Methods and compositions for treating male erectile dysfunction” (The Regents of the University of California, priority 2000, dated 2007).

Columns and labels:
[1] = test system: penile smooth muscle (alpha actin); test: Alpha-smooth muscle actin immunohistochemistry of rat penis with image analysis; assay type: in vivo; conditions: castrated rats
Protocol: Frozen sections were cut at 10 microns, adhered to charged slides, air dried for 15 minutes then rehydrated with 0.05M PBS for 5 minutes. […] The serum solution was drained and then sections were incubated for 60 minutes with mouse monoclonal anti-alpha-smooth muscle actin (Sigma, St. Louis, Mo.) at a dilution of 1:4000 in PBS. […] Immunochemistry was performed in penile tissues from 4 rats randomly chosen from each subgroup.
Cross-sectional micrographs of the rat penis at the proximal shaft were examined after immunohistochemistry for alpha actin. Alpha actin, a marker for penile smooth muscle, stains brown and can be seen surrounding the sinusoidal spaces. […] Computerized image analysis with Adobe Photoshop was used to quantify the area of immunostaining by counting the number of digitized pixels corresponding to the area of brown staining, thereby providing some numerical comparison of the quantity of smooth muscle in each specimen.

[2] = Serum testosterone radioimmunoassay; assay type: in vivo, rat; conditions: castrated rats given subcutaneous testosterone implants
Protocol: (§1) Following castration, testosterone- or saline-filled silastic implants were placed in the subcutaneous tissue of the anterior abdominal wall, as previously described.^17 Implants were prepared using sterile silastic tubing (Dow Coming, Midland, Mich. #602-265, inner diameter 0.062″) that was filled with testosterone propionate powder (Sigma Chemical, St. Louis, Mo.) with the aid of wall suction.

[3] = test system: venogenic erectile dysfunction in castrated rats; test: Pharmacologic cavernosometry, prevention trial in castrated rats (Experiment 2); assay type: in vivo, rat; conditions: castrated rats treated at castration, cavernosometry 9 weeks after castration
Text: For the prevention trial of VEGF in rats with venogenic erectile ED, adult males were castrated and immediately treated with hormone, intracavernosal VEGF. […] Control animals received an silastic implant containing saline (n=3), an intracavernous injection of normal saline (n=3) or an […] transfection vector expressing lacZ reporter gene without the VEGF gene (AAV-LacZ, n=11).
A 1.5 cm oblique incision was made in the lower abdominal skin extending from the midline just above the penile hilum to below the level of the glans about 1 cm lateral to the midline. The skin was sharply dissected from the anterior surface of the penis and then the penis was retracted anteriorly using a towel clamp placed around it atraumatically with the foreskin left intact. Using blunt dissection the penile base and crura were exposed. The ischiocavernosus muscles were sharply dissected off the anterior surface of the crus until the white of the tunica albuginea of the corpora cavernosa was identified. The crus was then gently cannulated using a 23 gage butterfly needle, and saline flush with a visual erectile response was used to confirm that the needle tip was truly intracavernosal. The intracavernosal injections were then administered with either VEGF protein (Calbiochem, La Jolla, Calif. #676472) at the dosage 4 ug/injection (in 0.1 cc PBS with 0.1% BSA), AAV-VEGF (10^10 viral particles in 0.1 cc NS), AAV-LacZ (10^10 viral particles in 0.1 cc NS), or 0.1 ml NS alone. The AAV-VEGF and AAV-LacZ constructs were a generous gift from Dr. Yuet W. Kan (Howard Hughes Medical Research Institute, San Francisco, Calif.).^19,20 Following injection, the needle was left in place for 5 minutes and then removed to allow the medication to diffuse throughout the cavernosal space. Immediately thereafter, pinpoint electrocautery was applied to the needle hole for hemostasis and then the wound was closed and the animal recovered as above.
as §1
To perform pharmacologic cavemosometry, both the right and left crura were separately cannulated using 23 gauge butterfly needles as described above. One cannula was flushed with sterile heparinized saline (100 U heparin/ml NS) and attached to a pressure detector for continuous intracorporal pressure (ICP) monitoring as previously described.^11 The contralateral cannula was attached to an infusion pump (Harvard Pump, Southwick, Mass. #55-2222), filled with sterile dilute heparinized saline (20 U heparin/ml NS). The baseline ICP was recorded (flaccid ICP) and then a dose of papavarine (1 mg in 0.1 cc NS) was administered through the infusion cannula. Five minutes was allowed for the papavarine to diffuse throughout the corpora and then the infusion cannula was flushed with heparinized saline and the pressure monitor cannula vented to normalize ICP after flushing. After 5 minutes more, the ICP was again recorded (ICP after papavarine) and the infusion started. An infusion rate of 0.05 ml/min was started and increased (by 0.05 ml/min every 10 seconds) until the ICP started to rise. Subsequent increases in inflow rate were made only after the ICP reached a plateau pressure. By slowly adjusting the inflow rate, an intracorporal pressure of 100 cm H2O (erectile pressure) was reached and the infusion rate required to maintain this pressure recorded (the maintenance rate). After this pressure was steady for 20 seconds, the infusion was terminated and the change in ICP over the subsequent 60 seconds was recorded (the drop rate).

[4] = test system: dorsal nerve, intracavernous smooth muscle cells and endothelial cells; test: Transmission electron microscopy of penile tissue (Example 2); assay type: in vivo, rat; conditions: castrated rats, testosterone replacement
Text: Thick sections were cut and stained with toluidine blue to select specific areas for thin sectioning. Thin sections were cut, stained with both uranyl acetate and Reynold's Lead, and examined under the Phillips Tecnai 10 transmission electron microscope. Penile tissues from 4 randomly chosen rats in each subgroups were subjected to electron microscopic examinations.

[5] = test system: cavernous nerve injury in rats; test: Maximal intracavernous pressure after bilateral cavernous nerve freezing (Example 9, VENT); assay type: in vivo, rat; conditions: 3 months after bilateral cavernous nerve freezing, intracavernous injection
Protocol: (§2) Three months old Sprague-Dawley rats (N=30) were used: 6 underwent a sham operation; 24 underwent bilateral cavernous nerve freezing and then randomly divided into four groups of 6 each. The four groups of rats received intracavernous injection of one of the following: 1) phosphate buffered saline (PBS), 2) VEGF protein (4 μg), 3) adeno-associated virus (AAV)-BDNF, and 4). VEGF+AAV-BDNF. Erectile function was assessed by cavernous nerve electrostimulation 3 months later and samples of penile tissue were obtained for electron microscopy and immunohistochemical studies.

[6] = test system: blood vessels and nerve fibers in the penis; test: Penile tissue histology, nNOS staining and electron microscopy (Example 9); assay type: in vivo, rat; conditions: 3 months after bilateral cavernous nerve freezing
Protocol: as §2

[7] = test system: NADPH diaphorase-positive nerve fibers and neurons; test: NADPH diaphorase staining of penile tissue and major pelvic ganglia; assay type: in vivo, rat
Protocol: Sections were incubated with 0.1 mM. NADPH, 0.2 mM. nitroblue tetrazolium, 0.2% Triton X-100 in 0.1 M. PO4, pH 8.0, for 60 min. at room temperature. The reaction was terminated by washing in buffer. Slides were then coverslipped with buffered glycerin as the mounting medium.^13
The presence of NADPH diaphorase-positive nerves was evidenced as a blue stain in the major pelvic ganglia, dorsal nerves and cavernous tissue, and the staining pattern was assessed by counting the number of positive neurons in 4 random fields (magnification 400×). The percentage of darkly and lightly stained cells in the major pelvic ganglia was calculated by dividing the number of these cells by the total number of positive cells.

[8] = test system: major pelvic ganglia (MPG); test: Nerve fiber outgrowth from cultured major pelvic ganglia; assay type: cell-based, rat; design: Average fiber length / FIBER LENGTH (average lengths of the growing fibers): unit not given here
Protocol: Each freshly isolated MPG was cut into 8 pieces of approximately equal size and each piece was then attached to a Matrigel-coated coverslip. The MPG pieces were cultured in serum-free medium supplemented with phosphate-buffered saline (PBS, control), 50 ng/ml of vascular endothelial growth factor (VEGF), 20 ng/ml of brain-derived neurotrophic factor (BDNF), or VEGF+BDNF. After 2 days of incubation, the ganglial tissues with their outgrowing nerve fibers were stained for the expression of NADPH diaphorase and acetylcholinesterase (AchE).
We have been using several experimental systems to test the efficacy of combination growth factor therapies for impotence. One system employs cultured rat major pelvic ganglia (MPG) that are known to innervate all urogenital organs, including the penis. We discovered that the cultured MPG are able to sprout new nerve fibers (nerve regeneration) from the axonal ends during the first 3 days of culture, especially when treated with VEGF, BDNF, NT-3, or NT-4.

[9] = test system: Erectile Dysfunction Induced by Hypercholesterolemia in a Rat Model; test: Erectile function in rats fed a high cholesterol diet (Example 5); assay type: in vivo; conditions: 6 months cholesterol diet, 4 months after intracavernous treatment
Protocol: Twenty-one Sprague-Dawley rats were used. All rats were fed a 2.5% cholesterol diet with added lard starting at 2 weeks of age for 6 months. The rats were divided into three groups. All groups after two months of a high cholesterol diet underwent serum evaluation of cholesterol and intracavernous injection of saline or treatment. Group 1, the control group, received intracavernous injection of saline, group 2, the VEGF group, received intracavernous injection of 4 ug of VEGF, and group 3, the AAV-BDNF group received 15 ug of BDNF. After six months of cholesterol diet and 4 months of treatment, all rats were subjected to cavernous nerve electrostimulation, cavernosometry with intracavernous papaverine injection, and infusion cavernosometry with heparinized saline to measure erectile function.

[10] = test system: Animal Model for Neurogenic Impotence; test: Maximal intracavernous pressure on electrostimulation after bilateral cavernous nerve freezing (Example 3); assay type: in vivo, rat; conditions: 8 weeks after bilateral cavernous nerve freezing
Text: Male Sprague-Dawley rats (N=34; age, 3 months; weight, 350 to 400 gm.) were divided into two groups: sham (N=10) and experimental (N=24). The rats in the sham group underwent periprostatic dissection and identification of bilateral cavernous nerves without other manipulation; those in the experimental groups underwent bilateral cavernous nerve freezing. Several minutes after surgery, half of the experimental animals (LacZ group, N=12) received intracavernous AAV-LacZ injection, and the remainder (BDNF group, N=12) received AAV-BDNF. Half of the rats in each group were sacrificed at week 4 and the rest at week 8 for collection of penile tissue. In all animals, erectile function was assessed by electrostimulation of the cavernous nerves before sacrifice.
Under intraperitoneal pentobarbital sodium anesthesia (50 mg./kg.), each animal was placed on a heating pad to maintain its body temperature at 37° C. […]
At weeks 4 and 8 postoperatively, rats in each group were re-explored for direct electrostimulation of the cavernous nerves before tissue collection. […] Each cavernous nerve was stimulated and intracavernous pressures were measured and recorded with a Macintosh computer programmed with LabVIEW 4.0 software (National Instruments, Austin, Tex.). The pressure for each animal was determined by the mean of both sides.

[11] = 50 ng/ml VEGF, 20 ng/ml BDNF, 2 days of incubation

CCC(=O)O[C@H]1CC[C@H]2[C@@H]3CCC4=CC(=O)CC[C@]4(C)[C@H]3CC[C@]12C [Testosterone, testosterone propionate, reference compound]
quantity of penile smooth muscle, qualitative [1]: returns to normal morphology
serum testosterone titer [2]: in the normal range
Drop Rate in 1 min. [3]: 11.7(+/−16) cm H2O
Flaccid ICP [3]: 28.9 cm H2O
ICP After Papavarine [3]: 87.7(+/−26) cm H2O
Maintenance Rate [3]: 0.09(+/−0.1) ml/min
nerve fibers and myelin sheath appearance [4]: appeared similar to the sham group

B1: BDNF: brain-derived neurotrophic factor added to MPG culture medium (Examples 7, 8) (protein, UniProt P23560 19-247, looked up)
Neurotrophic factor BDNF …: APMKEANIRGQGGLAYPGVRTHGTLESVNGPKAGSRGLTSLADTFEHVIEELLDEDQKVRPNEENNKDADLYTSRVMLSSQVPLEPPLLFLLEEYKNYLDAANMSMRVRRHSDPARRGELSVCDSISEWVTAADKKTAVDMSGGTVTVLEKVPVSKGQLKQYFYETKCNPMGYTKEGCRGIDKRHWNSQCRTTQSYVRALTMDSKKRIGWRFIRIDTSCVCTLTIKRGR
maximal intracavernous pressure (MICP), mean±SEM [5]: 69.75±8.54 cm H2O
nNOS positive nerve fibers in the dorsal nerves compared to PBS group [6]: increased number
NADPH Diaphorase-positive Nerve Fibers, Cavernous Tissue ([7]; 4 Weeks): 45.5 ± 10.5
NADPH Diaphorase-positive Nerve Fibers, Dorsal Nerve ([7]; 4 Weeks): 65.5 ± 15.5
NADPH Diaphorase-positive Neurons in the Major Pelvic Ganglion, % Dark Stain ([7]; 4 Weeks): 62.1 ± 13.1 %
NADPH Diaphorase-positive Neurons in the Major Pelvic Ganglion, % Light Stain ([7]; 4 Weeks): 38.6 ± 11.8%
NADPH Diaphorase-positive Neurons in the Major Pelvic Ganglion, Dark Stain ([7]; 4 Weeks): 61.8 ± 23.7
NADPH Diaphorase-positive Neurons in the Major Pelvic Ganglion, Light Stain ([7]; 4 Weeks): 33.8 ± 9
NADPH Diaphorase-positive Neurons in the Major Pelvic Ganglion, Total ([7]; 4 Weeks): 95.7 ± 22.4
NADPH Diaphorase-positive Nerve Fibers, Cavernous Tissue ([7]; 8 Weeks): 66.1 ± 15.2
NADPH Diaphorase-positive Nerve Fibers, Dorsal Nerve ([7]; 8 Weeks): 86.4 ± 12.2
NADPH Diaphorase-positive Neurons in the Major Pelvic Ganglion, % Dark Stain ([7]; 8 Weeks): 64.3 ± 10.7 %
NADPH Diaphorase-positive Neurons in the Major Pelvic Ganglion, % Light Stain ([7]; 8 Weeks): 35.6 ± 10.7%
NADPH Diaphorase-positive Neurons in the Major Pelvic Ganglion, Dark Stain ([7]; 8 Weeks): 69.4 ± 21.1
NADPH Diaphorase-positive Neurons in the Major Pelvic Ganglion, Light Stain ([7]; 8 Weeks): 38.4 ± 14
NADPH Diaphorase-positive Neurons in the Major Pelvic Ganglion, Total ([7]; 8 Weeks): 107.8 ± 23.58
AchE staining intensity [8, 11]: 1,102±211 IDV
NADPH staining intensity [8, 11]: 9,376±111 IDV
sustained intracavernous pressures during the pharmacologic erection phase of cavernosometry, vs high cholesterol controls [9]: significantly higher
Maximal intracavernous Pressure In Response to Electrostimulation [10]: 61.3 ± 12.5 cm H2O

B2: NT-4: neurotrophin-4 (protein, UniProt P34130 81-210, looked up)
Neurotrophin-4: GVSETAPASRRGELAVCDAVSGWVTDRRTAVDLRGREVEVLGEVPAAGGSPLRQYFFETRCKADNAEEGGPGAGGGGCRGVDRRHWVSECKAKQSYVRALTADAQGRVGWRWIRIDTACVCTLLSRTGRA
FIBER LENGTH (average lengths of the growing fibers) ([8]; 48 hours after culturing): 81
